Assay results: PMC2199204 (The Journal of Cell Biology, 2001)

Molecular target: T1, endogenous RasGRP (human (endogenous in A172), UniProt O95267 1-797)
T1 sequence (looked up): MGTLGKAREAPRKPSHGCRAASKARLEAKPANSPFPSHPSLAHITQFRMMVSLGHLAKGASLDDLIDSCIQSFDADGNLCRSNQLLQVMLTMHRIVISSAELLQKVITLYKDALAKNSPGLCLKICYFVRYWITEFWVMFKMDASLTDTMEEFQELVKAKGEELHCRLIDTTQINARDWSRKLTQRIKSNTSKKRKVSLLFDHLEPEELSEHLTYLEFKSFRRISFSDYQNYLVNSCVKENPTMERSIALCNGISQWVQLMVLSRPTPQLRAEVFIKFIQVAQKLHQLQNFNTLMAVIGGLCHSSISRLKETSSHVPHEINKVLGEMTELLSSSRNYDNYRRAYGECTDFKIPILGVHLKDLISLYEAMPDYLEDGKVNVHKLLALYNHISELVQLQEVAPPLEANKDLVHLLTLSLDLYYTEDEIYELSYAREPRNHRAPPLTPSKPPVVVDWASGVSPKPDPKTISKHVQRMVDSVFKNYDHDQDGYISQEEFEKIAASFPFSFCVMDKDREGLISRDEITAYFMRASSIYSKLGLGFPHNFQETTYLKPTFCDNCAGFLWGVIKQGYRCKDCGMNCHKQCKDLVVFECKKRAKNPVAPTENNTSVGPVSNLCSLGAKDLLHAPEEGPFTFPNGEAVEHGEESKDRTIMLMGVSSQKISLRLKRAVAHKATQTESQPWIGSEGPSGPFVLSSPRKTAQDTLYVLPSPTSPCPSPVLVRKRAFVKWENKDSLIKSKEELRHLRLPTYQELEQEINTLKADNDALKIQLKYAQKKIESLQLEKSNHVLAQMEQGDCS
Assay: co-IP

fold associated DGK activity, PMA-treated over untreated cells: 1.9 fold
B1: endogenous DGKζ (enzyme)
chain: not shown
